In experiment [1] the target is T1, huEpoR expressed on the cell surface (UT-7 cells) (human, UniProt P19235 25-508).
T1 sequence (looked up): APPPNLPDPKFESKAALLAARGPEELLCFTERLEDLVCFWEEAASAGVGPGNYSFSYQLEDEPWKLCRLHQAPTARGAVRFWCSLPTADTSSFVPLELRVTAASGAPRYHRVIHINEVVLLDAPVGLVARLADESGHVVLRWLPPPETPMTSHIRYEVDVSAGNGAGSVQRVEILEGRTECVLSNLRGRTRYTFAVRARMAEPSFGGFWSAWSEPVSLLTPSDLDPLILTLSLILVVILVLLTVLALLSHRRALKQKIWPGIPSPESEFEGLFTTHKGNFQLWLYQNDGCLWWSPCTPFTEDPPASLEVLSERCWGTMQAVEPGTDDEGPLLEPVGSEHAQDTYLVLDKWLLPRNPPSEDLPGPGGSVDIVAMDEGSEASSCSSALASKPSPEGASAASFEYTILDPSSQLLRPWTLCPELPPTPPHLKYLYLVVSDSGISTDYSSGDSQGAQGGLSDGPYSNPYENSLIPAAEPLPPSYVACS
Nature of the experiment: cell-based or functional assay.

Experiment [2] addresses T2, huEpoR protein (soluble human erythropoietin receptor) (human, UniProt P19235 25-250, limits assumed).
T2 construct: also called soluble huEpoR; biotinylated huEpoR
T2 sequence (looked up): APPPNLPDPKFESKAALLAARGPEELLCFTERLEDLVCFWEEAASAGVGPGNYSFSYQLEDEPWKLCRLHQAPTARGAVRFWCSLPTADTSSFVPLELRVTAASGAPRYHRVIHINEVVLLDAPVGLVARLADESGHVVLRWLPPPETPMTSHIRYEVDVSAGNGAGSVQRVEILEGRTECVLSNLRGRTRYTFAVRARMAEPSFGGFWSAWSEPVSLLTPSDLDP
Nature of the experiment: SPR, Biacore T100; scFv-Fc captured on anti-human IgG Fc CM5 chip, EpoR as analyte; 1:1 fit.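 Further: measured at 25 °C in HBS-EP buffer with 0.1 mg/ml BSA, flowed at 50 µl/min, 1 min association then dissociation (10 min human, 5 min cyno EpoR).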

Where a chain is given by its changes, count along the chain named.

What is called Kd is a measure of binding affinity in units of concentration. Low values mean tighter binding, high ones weaker binding. Broadly, the koff is the first-order rate constant of dissociation. Low values mean a long-lived complex, high ones a short-lived complex. A word on the kon: it is the rate constant with which the complex forms.

B1: Mxb 201 (clone 201 scFv-Fc protein) (Fc fusion)
VH: QVQLQESGSGLARPSQTLSLTCAVSGGSISSSAFSWNWIRQPPGKGLEWIGYIYHTGITDYNPSLKSRVTISVDRSKNQFSLNVNSVTAADTAVYYCARGHGSDPAWFDPWGKGTLVTVSS
VL: QSVLTQPPSVSVSPGQTASITCSGDKLGDKYASWYQQRPGQSPVLVIYRDTKRPSGIPERFSGSNSGNTATLTISGTQAVDEADYYCQAWDSTTSLVFGGGTKLTVL
notes: Tested as scFv-Fc (maxibody) with an Fc derived from human IgG1
As for B1, in experiment [1], the “Average EC50 (nM), UT-7-luciferase (STAT5 reporter) assay” value (“Average EC50 (nM), UT-7-luciferase” for short) worked out at 8.28 nM and the “Ratio (EC50 of Epo / EC50 of the scFv-Fc), UT-7-luciferase assay” value amounted to 0.001. In experiment [2], the equilibrium dissociation constant (Kd) amounted to 4030 nM, the dissociation rate constant (koff) is 0.0187 s⁻¹ and the on-rate (kon) was 4600 M⁻¹ s⁻¹.

B2: Mxb 378 (clone 378 scFv-Fc protein) (Fc fusion)
VH: QVQLVESGGGLVQPGRSLILSCAVSGFTFSKYWMTWVRQAPGKGLEWVANIKPDGSEKYYVESVKGRFTISRDNAKNSVYLQMNSVRAEDTAVYYCARVSRGGSFSDWSQGTLVTVSS
VL: QSALTQPPSASGSPGQSVTISCTGTSGDVGAYNYVSWYQQYPGKAPKLMIYEVSKRPSGVPDRFSGSKSGNTASLTVSGLQAEDEADYYCNSYRGSNGPWVFGGGTKVTVL
For the molecule B2, in experiment [1], the “Average EC50 (nM), UT-7-luciferase” value is 0.055 nM and the “Ratio (EC50 of Epo / EC50 of the scFv-Fc), UT-7-luciferase assay” value is 0.175.

B3: Mxb 276 (clone 276 scFv-Fc protein) (Fc fusion)
VH: EVQLVQSGGGLVQPGGSLRLSCAASGFTFSSYWMSWVRQAPGKGLEWVANIKPDGSEKYYVDSVKGRFTISRDNAKNSVYLQMNSLRAEDTAVYYCARVSRGGSYSDWGRGTMVTVSS
VL: QSVLTQPPSASGSPGQSVTISCTGTSSDVGGFNYVSWYQKYPGKAPKLVIYEVSKRPSGVPDRFSGSKSGNTASLTVSGLQAEDEADYYCSSWAPGKNLFGGGTKLTVL
Consider B3, for which, in experiment [1], the “Average EC50 (nM), UT-7-luciferase” value is 0.322 nM and the “Ratio (EC50 of Epo / EC50 of the scFv-Fc), UT-7-luciferase assay” value was determined as 0.03.

B4: Mxb 352 (clone 352 scFv-Fc protein) (Fc fusion)
VH: B3 VH with T28R, S35T, I70M, Y105F, R110Q, M113L
VL: QSALTQPASVSGSPGQSITIPCTGTSSDIGTYDYVSWYQQHPGKVPKVIIYEVTNRPSGVSNRFSGSKSGNTASLTISGLQADDEADYYCNSFTKNNTWVFGGGTKLTVL
With B4, in experiment [1], the “Average EC50 (nM), UT-7-luciferase” value is 2.16 nM and the “Ratio (EC50 of Epo / EC50 of the scFv-Fc), UT-7-luciferase assay” value amounted to 0.004.

B5: Mxb 323 (clone 323 scFv-Fc protein) (Fc fusion)
VH: B2 VH with R16G, I19R, S109G, Q110R, L113M
VL: QSALTQPASVSGSPGQSITISCTGTSSDVGSYNLVSWYQQHPGKVPKLIIYEVSNRPSGVSHRFSGSKSGNTASLTISGLQAEDEADYYCSSLTSSGTWVFGGGTKVTVL
For the molecule B5, in experiment [1], the “Average EC50 (nM), UT-7-luciferase” value was determined as 0.613 nM and the “Ratio (EC50 of Epo / EC50 of the scFv-Fc), UT-7-luciferase assay” value is 0.016.

(Values after patent US20080102065A1 (published 2008).)
